{"source": "paper PMC4227695", "about": "“Combining Anti-ERBB3 Antibodies Specific for Domain I and Domain III Enhances the Anti-Tumor Activity over the Individual Monoclonal Antibodies” (PLoS ONE, 2014)", "binders": {"B1": {"name": "A5 anti-ERBB3 IgG (human IgG1 format) (antibody, V domains shown)", "VH": "QVQLVQSGGGLVKPGGSLRLSCAASGFSFNTYDMNWVRQAPGKGLEWVSSISSSSSYIYYADSVKGRFTISRDNAKNSLYLQMNSLRAEDTAVYYCARDGVATTPFDYWGQGTLVTVSS", "VL": "QSVLTQPPSVSGAPGQRVTISCTGSSSNIGAGYDVHWYQQLPGTAPKLLIYGNSNRPSGVPDRFSGSKSGTSASLAITGLQAEDEADYYCQSYDSSLSALFGGGTKLTVL", "notes": "A5 variable heavy (Vh) domain; human IgG1 heavy chain constant region; A5 variable light (Vl) domain; light chain constant domain; IgG1; also called A5 IgG; source: purified from conditioned media by protein A chromatography; copies: 2 + 2"}, "B2": {"name": "A5 anti-ERBB3 single-chain Fv (scFv, V domains shown)", "VH": "B1 VH", "VL": "B1 VL", "notes": "A5 variable heavy (Vh) domain; linker of the scFv; A5 variable light (Vl) domain; Coupled to AminoLink agarose in the immunoprecipitations; also called A5 scFv"}, "B3": {"name": "F4 anti-ERBB3 IgG (human IgG1 format) (antibody, V domains shown)", "VH": "QVQLQESGGGLVKPGGSLRLSCAASGFTFSSYAMSWVRQAPGKGLEWVSTISGSGGSTYYADSVKGRFTISRDNSKNTLYLQMNSLRAEDTAVYYCAKGYSSSWSEVASGYWGQGTLVTVSS", "VL": "DIVMTQSPSSLSASVGDRVTITCRASQGIRNDLGWYQQKAGKAPKLLIYAASSLQSGVPSRFSGSGSGTDFTLTISSLQPDDFATYFCQQAHSFPPTFGGGTKVEIK", "notes": "F4 variable heavy (Vh) domain; human IgG1 heavy chain constant region; F4 variable light (Vl) domain; light chain constant domain; IgG1; also called F4 IgG; source: purified from conditioned media by protein A chromatography; copies: 2 + 2"}, "B4": {"name": "F4 anti-ERBB3 single-chain Fv (scFv, V domains shown)", "VH": "B3 VH", "VL": "B3 VL", "notes": "F4 variable heavy (Vh) domain; linker of the scFv; F4 variable light (Vl) domain; Coupled to AminoLink agarose in the immunoprecipitations; also called F4 scFv"}}, "key": {"ERBB3 on BT-474 cells": {"molecular_target": "T1, ERBB3 on BT-474 cells (Homo sapiens, UniProt P21860)", "T1 construct": "ERBB3/HER3 receptor on the surface of BT-474 breast cancer cells; Also used for the functional rows, where the cells were BT-474, NCI-N87 and ACHN; also called HER3; source: endogenous, BT-474 cells", "T1 sequence (P21860 20-1342)": "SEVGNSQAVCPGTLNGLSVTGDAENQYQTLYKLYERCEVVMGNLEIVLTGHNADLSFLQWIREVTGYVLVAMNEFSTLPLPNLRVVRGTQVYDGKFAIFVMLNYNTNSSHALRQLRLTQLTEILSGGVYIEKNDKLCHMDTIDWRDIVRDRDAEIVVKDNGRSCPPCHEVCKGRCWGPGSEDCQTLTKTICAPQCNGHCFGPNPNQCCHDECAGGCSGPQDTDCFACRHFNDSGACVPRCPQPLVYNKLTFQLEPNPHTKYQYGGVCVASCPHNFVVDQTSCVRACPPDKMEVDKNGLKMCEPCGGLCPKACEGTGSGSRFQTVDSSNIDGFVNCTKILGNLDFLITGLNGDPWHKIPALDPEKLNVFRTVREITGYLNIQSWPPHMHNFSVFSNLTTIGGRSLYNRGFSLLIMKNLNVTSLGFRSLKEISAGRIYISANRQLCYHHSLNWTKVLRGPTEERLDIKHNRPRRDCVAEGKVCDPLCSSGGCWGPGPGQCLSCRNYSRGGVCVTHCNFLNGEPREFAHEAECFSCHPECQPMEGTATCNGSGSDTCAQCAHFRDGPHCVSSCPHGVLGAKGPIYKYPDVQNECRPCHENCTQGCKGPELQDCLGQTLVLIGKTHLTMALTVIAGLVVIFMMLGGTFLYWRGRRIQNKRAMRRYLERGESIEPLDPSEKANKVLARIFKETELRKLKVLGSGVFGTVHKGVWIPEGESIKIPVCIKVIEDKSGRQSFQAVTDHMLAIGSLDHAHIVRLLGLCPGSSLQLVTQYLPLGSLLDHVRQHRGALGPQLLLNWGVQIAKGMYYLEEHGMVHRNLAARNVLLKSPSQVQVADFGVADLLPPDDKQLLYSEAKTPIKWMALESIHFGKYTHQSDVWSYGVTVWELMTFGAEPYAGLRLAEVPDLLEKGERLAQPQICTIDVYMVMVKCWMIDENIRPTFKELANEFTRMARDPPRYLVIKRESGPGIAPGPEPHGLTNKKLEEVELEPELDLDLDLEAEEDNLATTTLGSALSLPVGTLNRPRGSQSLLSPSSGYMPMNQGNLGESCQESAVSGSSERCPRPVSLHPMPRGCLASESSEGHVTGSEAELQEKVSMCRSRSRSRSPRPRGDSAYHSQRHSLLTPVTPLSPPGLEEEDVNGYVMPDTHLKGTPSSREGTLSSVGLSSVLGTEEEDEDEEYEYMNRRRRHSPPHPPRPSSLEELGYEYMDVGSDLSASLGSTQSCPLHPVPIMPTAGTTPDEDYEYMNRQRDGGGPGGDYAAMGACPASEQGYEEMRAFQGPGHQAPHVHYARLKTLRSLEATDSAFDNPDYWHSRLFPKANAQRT", "assay": "flow cytometry on cells; 0, 0.5, 2, 5 ug IgG with BT-474 cells (250,000 cells/assay); detected with FITC-conjugated anti-human Fc", "details": "one partner purified"}, "[1]": {"molecular_target": "T2, intact ERBB3 extracellular domain (dI-IV, aa20-639) (Homo sapiens, UniProt P21860)", "T2 construct": "ERBB3/HER3 extracellular domain, domains I-IV, aa20-639; also called ERBB3 ECD; intact ERBB3 ECD; source: purified from culture supernatant by IMAC (HisTrap)", "T2 sequence (P21860 20-639)": "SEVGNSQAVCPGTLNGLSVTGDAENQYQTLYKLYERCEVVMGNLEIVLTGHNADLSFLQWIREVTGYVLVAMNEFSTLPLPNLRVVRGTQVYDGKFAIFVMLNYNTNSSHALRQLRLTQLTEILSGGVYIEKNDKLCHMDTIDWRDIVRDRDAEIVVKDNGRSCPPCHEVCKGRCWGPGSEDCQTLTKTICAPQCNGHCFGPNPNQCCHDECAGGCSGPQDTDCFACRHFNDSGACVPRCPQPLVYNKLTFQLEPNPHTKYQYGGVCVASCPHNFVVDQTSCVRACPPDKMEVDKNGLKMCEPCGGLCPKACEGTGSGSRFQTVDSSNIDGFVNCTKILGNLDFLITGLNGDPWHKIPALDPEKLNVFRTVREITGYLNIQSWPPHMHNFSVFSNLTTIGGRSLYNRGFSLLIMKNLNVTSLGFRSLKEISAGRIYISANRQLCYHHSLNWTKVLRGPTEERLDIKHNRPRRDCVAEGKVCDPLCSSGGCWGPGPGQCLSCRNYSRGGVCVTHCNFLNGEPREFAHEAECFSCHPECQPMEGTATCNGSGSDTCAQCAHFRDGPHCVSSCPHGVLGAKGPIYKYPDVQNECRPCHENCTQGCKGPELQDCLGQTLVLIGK", "assay": "ELISA; apparent; ERBB3 extracellular domain immobilised; 4-fold serial dilutions of IgG (1333-0.02 nM); detected with HRP-conjugated anti-human Fc"}, "[2]": {"molecular_target": "T3, ERBB3 extracellular domain I (dI, aa20-207) (Homo sapiens, UniProt P21860)", "T3 construct": "ERBB3/HER3 domain I, aa20-207; Sub-cloned into pSEC-Tag2/HygroA (vector-supplied secretion signal; the vector may add further tag residues); source: HEK293, stably expressed, purified from culture supernatant (IMAC, HisTrap)", "T3 sequence (P21860 20-207)": "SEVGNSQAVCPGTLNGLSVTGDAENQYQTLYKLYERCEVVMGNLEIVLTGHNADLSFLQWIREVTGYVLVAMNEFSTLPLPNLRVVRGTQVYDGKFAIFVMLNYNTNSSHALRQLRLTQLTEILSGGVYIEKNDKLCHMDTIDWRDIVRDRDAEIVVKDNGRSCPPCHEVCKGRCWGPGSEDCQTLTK", "assay": "native gel or EMSA; IgG (30-40 ug) with dI at 1.5x and 3x molar ratios of IgG:dI, 4 uL reaction, 30 min at room temperature; 12.5% native acrylamide gel (PhastGel), stained; loss of free dI read", "details": "both partners purified"}, "[3]": {"molecular_target": "T2, intact ERBB3 extracellular domain …", "assay": "pull-down; called immunoprecipitation: scFv coupled to AminoLink agarose (about 80 ug scFv, 20-50 fold excess) incubated 1 h at room temperature with 5 ug ERBB3 ECD fragment in 40 uL; washed 3x with PBS; supernatant and pellet fractions on SDS-PAGE", "details": "both partners purified"}, "[4]": {"molecular_target": "T4, ERBB3 extracellular domains III-IV (dIII-IV, aa310-616) (Homo sapiens, UniProt P21860)", "T4 construct": "ERBB3/HER3 domains III-IV, aa310-616; source: purified from culture supernatant by IMAC (HisTrap)", "T4 sequence (P21860 310-616)": "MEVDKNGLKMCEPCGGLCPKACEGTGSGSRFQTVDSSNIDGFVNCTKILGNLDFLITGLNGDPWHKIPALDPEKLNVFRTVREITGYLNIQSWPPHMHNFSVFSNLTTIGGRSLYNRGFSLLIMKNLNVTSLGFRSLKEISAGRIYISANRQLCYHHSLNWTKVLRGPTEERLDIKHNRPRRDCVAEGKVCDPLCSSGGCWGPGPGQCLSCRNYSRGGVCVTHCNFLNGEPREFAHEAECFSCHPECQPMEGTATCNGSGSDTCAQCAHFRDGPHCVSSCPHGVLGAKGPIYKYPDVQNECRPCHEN", "assay": "pull-down; called immunoprecipitation: scFv coupled to AminoLink agarose (about 80 ug scFv, 20-50 fold excess) incubated 1 h at room temperature with 5 ug ERBB3 ECD fragment in 40 uL; washed 3x with PBS; supernatant and pellet fractions on SDS-PAGE", "details": "both partners purified"}, "[5]": {"molecular_target": "T5, ERBB3 extracellular domain III (dIII, aa311-477) (Homo sapiens, UniProt P21860)", "T5 construct": "ERBB3/HER3 domain III, aa311-477; Subcloned into pMTBiPV5HISa (vector-supplied secretion signal; the vector may add further tag residues); source: S2 cells, stably expressed, purified from culture supernatant (IMAC, HisTrap)", "T5 sequence (P21860 311-477)": "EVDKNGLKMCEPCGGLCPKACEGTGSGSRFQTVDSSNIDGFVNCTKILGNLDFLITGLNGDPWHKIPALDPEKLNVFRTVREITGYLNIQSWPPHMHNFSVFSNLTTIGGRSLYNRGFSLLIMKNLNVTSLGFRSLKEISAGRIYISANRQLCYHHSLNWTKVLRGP", "assay": "pull-down; called immunoprecipitation: scFv coupled to AminoLink agarose (about 80 ug scFv, 20-50 fold excess) incubated 1 h at room temperature with 5 ug ERBB3 ECD fragment in 40 uL; washed 3x with PBS; supernatant and pellet fractions on SDS-PAGE", "details": "both partners purified"}, "[6]": {"molecular_target": "T6, ERBB3 extracellular domains I-II (dI-II, aa20-329) (Homo sapiens, UniProt P21860)", "T6 construct": "ERBB3/HER3 domains I-II, aa20-329; Sub-cloned into pSEC-Tag2/HygroA (vector-supplied secretion signal; the vector may add further tag residues); source: HEK293, stably expressed, purified from culture supernatant (IMAC, HisTrap)", "T6 sequence (P21860 20-329)": "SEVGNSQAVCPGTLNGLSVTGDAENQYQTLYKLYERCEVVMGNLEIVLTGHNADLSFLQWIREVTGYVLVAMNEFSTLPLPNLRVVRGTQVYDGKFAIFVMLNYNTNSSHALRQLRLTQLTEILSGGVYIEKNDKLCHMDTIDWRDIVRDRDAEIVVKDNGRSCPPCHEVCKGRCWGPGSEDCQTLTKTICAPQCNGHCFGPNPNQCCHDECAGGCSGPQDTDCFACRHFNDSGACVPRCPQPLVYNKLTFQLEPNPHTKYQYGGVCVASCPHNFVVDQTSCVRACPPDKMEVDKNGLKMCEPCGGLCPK", "assay": "pull-down; called immunoprecipitation: scFv coupled to AminoLink agarose (about 80 ug scFv, 20-50 fold excess) incubated 1 h at room temperature with 5 ug ERBB3 ECD fragment in 40 uL; washed 3x with PBS; supernatant and pellet fractions on SDS-PAGE", "details": "both partners purified"}, "[7]": {"molecular_target": "T3, ERBB3 extracellular domain I (dI, …)", "assay": "pull-down; called immunoprecipitation: scFv coupled to AminoLink agarose (about 80 ug scFv, 20-50 fold excess) incubated 1 h at room temperature with 5 ug ERBB3 ECD fragment in 40 uL; washed 3x with PBS; supernatant and pellet fractions on SDS-PAGE", "details": "both partners purified"}}}
{"binder": "B1", "values": [{"measurement": "binding result", "setting": "ERBB3 on BT-474 cells", "value": "binds"}, {"measurement": "Kd", "setting": "[1]", "value": 11.1, "unit": "nM"}, {"measurement": "binding result", "setting": "[2]", "value": "no binding (tested: 1.5x and 3x Molar excess of antibody)"}]}
{"binder": "B2", "values": [{"measurement": "binding result", "setting": "[3]", "value": "binds"}, {"measurement": "binding result", "setting": "[4]", "value": "binds"}, {"measurement": "binding result", "setting": "[5]", "value": "binds"}]}
{"binder": "B3", "values": [{"measurement": "binding result", "setting": "ERBB3 on BT-474 cells", "value": "binds"}, {"measurement": "Kd", "setting": "[1]", "value": 4.8, "unit": "nM"}, {"measurement": "binding result", "setting": "[2]", "value": "binds"}]}
{"binder": "B4", "values": [{"measurement": "binding result", "setting": "[3]", "value": "binds"}, {"measurement": "binding result", "setting": "[6]", "value": "binds"}, {"measurement": "binding result", "setting": "[7]", "value": "binds"}]}
